{
  "source": "the RNAGym collection of RNA variant scans (doi:10.7554/elife.80360)",
  "parents": {"B1": {"name": "CPEB3 Ribozyme (parent)", "chain": "GGGGGCCACAGCAGAAGCGUUCACGUCGCGGCCCCUGUCAGAUUCUGGUGAAUCUGCGAAUUCUGCUGU"}},
  "data": [
    {"variants_of": "B1", "experiment": "self-cleavage, relative activity (ratio to wild type); higher = more cleavage; co-transcriptional", "values": [
      {"variant": "C22A G65U", "self-cleavage": 0.209},
      {"variant": "C22A G65A", "self-cleavage": 0.152},
      {"variant": "C22G G37U", "self-cleavage": 0.527},
      {"variant": "C22G C54U", "self-cleavage": 0.204},
      {"variant": "C22G C54G", "self-cleavage": 0.125},
      {"variant": "C22G C54A", "self-cleavage": 0.121},
      {"variant": "C22A C45G", "self-cleavage": 0.194},
      {"variant": "C22U G58U", "self-cleavage": 0.374},
      {"variant": "C22U G58C", "self-cleavage": 0.223},
      {"variant": "C22U G58A", "self-cleavage": 0.255},
      {"variant": "C22U U46A", "self-cleavage": 0.29},
      {"variant": "C22G U53G", "self-cleavage": 0.129},
      {"variant": "C22G U53C", "self-cleavage": 0.184},
      {"variant": "C22U C27U", "self-cleavage": 0.164},
      {"variant": "C22U C27G", "self-cleavage": 0.215},
      {"variant": "C22U C27A", "self-cleavage": 0.2},
      {"variant": "C22A U44G", "self-cleavage": 0.237},
      {"variant": "C22G A51U", "self-cleavage": 0.163},
      {"variant": "C22G A51G", "self-cleavage": 0.131},
      {"variant": "C22G A51C", "self-cleavage": 0.151},
      {"variant": "C22G U46C", "self-cleavage": 0.192},
      {"variant": "C22G U46A", "self-cleavage": 0.205},
      {"variant": "C22G A60U", "self-cleavage": 0.0906},
      {"variant": "C22G A60C", "self-cleavage": 0.133},
      {"variant": "C22A U62G", "self-cleavage": 0.112},
      {"variant": "C22U C34U", "self-cleavage": 0.332},
      {"variant": "C22U C34A", "self-cleavage": 0.22},
      {"variant": "C22U C34G", "self-cleavage": 0.202},
      {"variant": "C22G A59C", "self-cleavage": 0.151},
      {"variant": "C22G A59U", "self-cleavage": 0.246},
      {"variant": "C22G A59G", "self-cleavage": 0.204},
      {"variant": "C22U A52C", "self-cleavage": 0.233},
      {"variant": "C22U A52G", "self-cleavage": 0.379},
      {"variant": "U21G G48A", "self-cleavage": 0.674},
      {"variant": "U21G G48C", "self-cleavage": 0.648},
      {"variant": "U21G G48U", "self-cleavage": 0.594},
      {"variant": "C22G A52U", "self-cleavage": 0.146},
      {"variant": "C22G A52C", "self-cleavage": 0.191},
      {"variant": "C22G A52G", "self-cleavage": 0.124},
      {"variant": "U21G U55C", "self-cleavage": 0.358},
      {"variant": "U21G U55G", "self-cleavage": 0.346},
      {"variant": "U21G U55A", "self-cleavage": 0.592},
      {"variant": "C22A U38G", "self-cleavage": 0.131},
      {"variant": "C22A U38A", "self-cleavage": 0.225},
      {"variant": "C22A G37C", "self-cleavage": 0.265},
      {"variant": "C22A G37U", "self-cleavage": 0.937},
      {"variant": "C22A G50C", "self-cleavage": 0.234},
      {"variant": "C22A G50U", "self-cleavage": 0.253},
      {"variant": "C22U C57A", "self-cleavage": 0.166},
      {"variant": "C22A A42G", "self-cleavage": 0.207},
      {"variant": "C22A A42C", "self-cleavage": 0.251},
      {"variant": "C22G G25A", "self-cleavage": 0.177},
      {"variant": "C22G G25U", "self-cleavage": 0.146},
      {"variant": "C22G G25C", "self-cleavage": 0.248},
      {"variant": "C22G C32A", "self-cleavage": 0.117},
      {"variant": "C22G C32G", "self-cleavage": 0.139},
      {"variant": "U21G U69G", "self-cleavage": 0.823},
      {"variant": "U21G U69A", "self-cleavage": 0.667},
      {"variant": "U21G U69C", "self-cleavage": 0.863},
      {"variant": "C22U A60U", "self-cleavage": 0.137},
      {"variant": "C22U A60G", "self-cleavage": 0.223},
      {"variant": "C22U A60C", "self-cleavage": 0.158},
      {"variant": "C22G U44C", "self-cleavage": 0.22},
      {"variant": "C22G U44A", "self-cleavage": 0.158},
      {"variant": "C22U U38G", "self-cleavage": 0.141},
      {"variant": "C22U U38C", "self-cleavage": 0.304},
      {"variant": "C22U U38A", "self-cleavage": 0.272},
      {"variant": "U21G U49C", "self-cleavage": 0.738},
      {"variant": "C22G A42G", "self-cleavage": 0.132},
      {"variant": "C22G A42C", "self-cleavage": 0.23},
      {"variant": "C22G A42U", "self-cleavage": 0.194},
      {"variant": "U21G G58U", "self-cleavage": 0.657},
      {"variant": "U21G G58C", "self-cleavage": 0.519},
      {"variant": "C22U C66A", "self-cleavage": 0.19},
      {"variant": "C22U C66G", "self-cleavage": 0.132},
      {"variant": "C22A C54U", "self-cleavage": 0.139},
      {"variant": "C22A C54G", "self-cleavage": 0.2},
      {"variant": "C22G G28U", "self-cleavage": 0.182},
      {"variant": "C22G G28C", "self-cleavage": 0.18},
      {"variant": "C22A C57U", "self-cleavage": 0.137},
      {"variant": "C22A C57G", "self-cleavage": 0.187},
      {"variant": "C22G U38C", "self-cleavage": 0.232},
      {"variant": "C22G U38G", "self-cleavage": 0.177},
      {"variant": "C22G U38A", "self-cleavage": 0.165},
      {"variant": "C22A U46G", "self-cleavage": 0.148},
      {"variant": "C22A U46C", "self-cleavage": 0.186},
      {"variant": "C22A U46A", "self-cleavage": 0.181},
      {"variant": "C22A U49A", "self-cleavage": 0.195},
      {"variant": "C22A U49G", "self-cleavage": 0.0812},
      {"variant": "C22A U49C", "self-cleavage": 0.209},
      {"variant": "C22U G65A", "self-cleavage": 0.216},
      {"variant": "C22U G65C", "self-cleavage": 0.248},
      {"variant": "C22U G65U", "self-cleavage": 0.195},
      {"variant": "C22U U43A", "self-cleavage": 0.217},
      {"variant": "C22U U43G", "self-cleavage": 0.222},
      {"variant": "C22G C35G", "self-cleavage": 0.231},
      {"variant": "C22G C35A", "self-cleavage": 0.169},
      {"variant": "C22G C35U", "self-cleavage": 0.208},
      {"variant": "C22G U67A", "self-cleavage": 0.242},
      {"variant": "C22G U67C", "self-cleavage": 0.175},
      {"variant": "C22G U67G", "self-cleavage": 0.121},
      {"variant": "C22G C39G", "self-cleavage": 0.0932},
      {"variant": "C22G C39U", "self-cleavage": 0.236},
      {"variant": "C22G C39A", "self-cleavage": 0.0996},
      {"variant": "C22A G48U", "self-cleavage": 0.162},
      {"variant": "C22A G48A", "self-cleavage": 0.223},
      {"variant": "C22A G48C", "self-cleavage": 0.162},
      {"variant": "C22A C24G", "self-cleavage": 0.249},
      {"variant": "C22A C24U", "self-cleavage": 0.128},
      {"variant": "C22G C33U", "self-cleavage": 0.264},
      {"variant": "C22G C33A", "self-cleavage": 0.195},
      {"variant": "C22G U69C", "self-cleavage": 0.374},
      {"variant": "U21G G68A", "self-cleavage": 0.794},
      {"variant": "C22G C29U", "self-cleavage": 0.07},
      {"variant": "C22G C29G", "self-cleavage": 0.225},
      {"variant": "C22G G48U", "self-cleavage": 0.161},
      {"variant": "C22G G48A", "self-cleavage": 0.226},
      {"variant": "C22U A51C", "self-cleavage": 0.291},
      {"variant": "C22U A51G", "self-cleavage": 0.314},
      {"variant": "C22A A23C", "self-cleavage": 0.202},
      {"variant": "C22G A23G", "self-cleavage": 0.217},
      {"variant": "C22A U55C", "self-cleavage": 0.113},
      {"variant": "C22A U55A", "self-cleavage": 0.234},
      {"variant": "C22G U64C", "self-cleavage": 0.205},
      {"variant": "C22G U64A", "self-cleavage": 0.202},
      {"variant": "C22A G28A", "self-cleavage": 0.158},
      {"variant": "C22A G28U", "self-cleavage": 0.159},
      {"variant": "C22A G28C", "self-cleavage": 0.124},
      {"variant": "C22G G47A", "self-cleavage": 0.149},
      {"variant": "C22G G47U", "self-cleavage": 0.133},
      {"variant": "C22G G47C", "self-cleavage": 0.122},
      {"variant": "C22G U55C", "self-cleavage": 0.198},
      {"variant": "C22G U55G", "self-cleavage": 0.14},
      {"variant": "C22G U55A", "self-cleavage": 0.116},
      {"variant": "C22G C57G", "self-cleavage": 0.205},
      {"variant": "C22U G41C", "self-cleavage": 0.117},
      {"variant": "C22U G41A", "self-cleavage": 0.185},
      {"variant": "C22U G41U", "self-cleavage": 0.164},
      {"variant": "C22U C29U", "self-cleavage": 0.14},
      {"variant": "C22U C29G", "self-cleavage": 0.152},
      {"variant": "C22G C66G", "self-cleavage": 0.182},
      {"variant": "C22G C66A", "self-cleavage": 0.135},
      {"variant": "C22G G41A", "self-cleavage": 0.147},
      {"variant": "C22G G41C", "self-cleavage": 0.105},
      {"variant": "C22G G41U", "self-cleavage": 0.178},
      {"variant": "C22A U43G", "self-cleavage": 0.181},
      {"variant": "C22A U43A", "self-cleavage": 0.143},
      {"variant": "C22A A60C", "self-cleavage": 0.129},
      {"variant": "C22U G25A", "self-cleavage": 0.164},
      {"variant": "C22U G25U", "self-cleavage": 0.153},
      {"variant": "C22U G25C", "self-cleavage": 0.153},
      {"variant": "C22U C45G", "self-cleavage": 0.25},
      {"variant": "C22U C45U", "self-cleavage": 0.318},
      {"variant": "C22U C45A", "self-cleavage": 0.33},
      {"variant": "C22G G58C", "self-cleavage": 0.161},
      {"variant": "C22G G58U", "self-cleavage": 0.202},
      {"variant": "U21G U38A", "self-cleavage": 0.157},
      {"variant": "U21G U38G", "self-cleavage": 0.274},
      {"variant": "U21G U36A", "self-cleavage": 0.17},
      {"variant": "C22U C39A", "self-cleavage": 0.148},
      {"variant": "C22U C39G", "self-cleavage": 0.207},
      {"variant": "C22G U36A", "self-cleavage": 0.152},
      {"variant": "C22G U36C", "self-cleavage": 0.236},
      {"variant": "C22G U36G", "self-cleavage": 0.143},
      {"variant": "C22G U43G", "self-cleavage": 0.133},
      {"variant": "C22G U43C", "self-cleavage": 0.174},
      {"variant": "C22G U43A", "self-cleavage": 0.114}
    ]}
  ]
}
